Experimental findings from the supplement of paper PMC11502859 are described below.
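Also: lentiviral eGFP-IRES-mCherry reporter pool sorted by FACS 96 h post-transduction, gated on mCherry-high cells, Illumina read counts normalized per million, median across four biological replicates.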

In the data set the test system is HEK293T. Put plainly: median enrichment of reporter reads in eGFP-reduced (low/intermediate) vs eGFP-high sorted cells (eGFP-extension fusion abundance) (ratio); higher = stronger loss of eGFP-fusion protein abundance (more destabilising extension).
“RTPNTIFAIQPQAMGTAFLPRGPGRPQRLLQARTLVHYTPCLGAEILQQKDAIFFVSFFSIFFSKESIFQYVECVSNAMKLKY [NFYC]”: the median enrichment is 15.8.

Regarding RTQDSE [CD3G], the median enrichment was determined as 0.492. As for RTQTPQSSRLALLRLRGPQKSPPK [TSGA13], the figure is 9.36; as for RTRIPNYISTDAFHFNSS [SAMSN1], 2.43. As for RTSARPARPFPTST [ISLR2], the figure is 0.582; as for RTSRPTTLRKIEW [HCAR1], 1.94.

In the case of “RVAVWEPLCLAPGYPGPGNLRAGERWGGRHAEVLLVTGLPSLTCTYLHPELSSSPSSCLLLPTCLPSAGAPRPTHSYCTVHFI [SLC36A1]”, the median enrichment stood at 3.4.

For RVAYFMQS [PDE5A], the median enrichment amounted to 7.9. For the substance RVEPTSLPSQQARN [TMEM143], the median enrichment is 0.919. The figure for “RVFGNRISCVAHRPVEKLEPKLSYLEMTFGLDSW [C12orf76]” is 4.28; for RVFHP [ZSWIM8] it is 0.463; for “RVFLGIVFCSCFSVLGMGPGPDTPSPPLWPWPLKLQTQVPILFSPSNAPPNLQPPCLQLPGPGRALVPSLGLIFSLNSTDQLP [JUP]” it is 7.92. As for “RVSSPTRSLARPLALQLLFGGGIPHSFLGTHSHAHCRSINSNPHFRPKIMRPHLVSTFPRPCSKPNPFLPSGSQNLLSPTATT [RNF39]”, the figure is 6.99.

As for RVT [OR2M3], the median enrichment worked out at 0.571. As for “RVTFQVVPWAPGSGLWPTFSTFRPICTGCWQGGGRELTGTEGLGTQPFSTCAYRLDLSLLQKPALLCWLAGPVAAG [EIF6]”, the figure is 6.39; as for RVTKKTMHHKIAQSSAEQFSGDPWTQ [CXCL6], 0.284; as for “RVWGPCQPAAPKPAPLPKQPRPLPLNPGPGRPGRPPVTAAAPALCRAALTCLPSQPLTSRLSLGQREPFGGAACLLWFWEG [FLNA]”, 3.47. For “RVYTRTMWYVARPGPGVRLGQPQLSLPLLLIQGVTRHLSLCYFWPQQEPVLGYFCPCSSQPNSGLAHPSPPPKAAEAVGGTGP [KCNJ11]”, the median enrichment is 4.66. As for “RWCWGLGRGGELGCQNSMDMFLWMEGRAFVTFCTYSFCGCFDKGMARELVSIISFILFWL [BCO1]”, the figure is 16; as for “RWTSLFPGPRTLQEMETVQRAVWSHNLNRFSGAPSLLPSLQ [RPRD1A]”, 6.53. The figure for RYC [NCK1] is 0.896; for RYCSTQPNL [BRPF1] it is 3.69. The figure for RYGWYSLHI [WASHC4] is 8.03; for “RYPGASPVTVTAAPPPRLLSASNHLDSPEESPMETALIRCPAAARGPRSPRVPLKECLGHIRPARSRERAPNARPG [CUX1]” it is 4.54. As for RYQKKK [STARD6], the median enrichment is 0.951.

As for “SAASWPWGRGLGCGAVWVLSSSPLPRPSLSNPAWDLGFNAEAMSLSGPASGYSHPGTEKAADGDCLPQPQQHLGLQLLESYHP [LGALS9]”, the median enrichment turned out to be 7.86. Regarding SAAVTTFTCSSYTQTLQD [PIFO], the median enrichment stood at 1.55. As for “SACPQHLLPPSLGVWIPMELGSAGHNLFLASDLPAIIKWLQIGT [LRRC59]”, the figure is 7.87; as for “SAEGKSGKMSFERCIPKASSGASGKSGPTSARPSSPSPAPPLVSSFIQQNLAGK [NKG7]”, 0.737; as for SAGAFVAISL [MSI2], 3.7. As for “SAGPWDTAFSFARLSACRPGGEPGPANESLVYLGCNSLKVQSFGLQSCPGPGSPGHCCSPRPWALVFLQHHTCCPFSISVCVK [MYO1F]”, the median enrichment turned out to be 7.3. As for “SAGRGSAPRKCLLCPGAERRCLLGAGLPPCGSCAPWPGPCPAAPVSPSLSPVLVLACSSSQPRESFPTCPRLLSLPRPVVPSW [ARHGAP39]”, the figure is 4.7. For “SAGSSPLVHSSQGQKGVDMINTESPTSTPTEFPARQCQKHFSREPKPNQEEAREEAGREEGAFPAPRFLKCRSDTCVGVHVLY [SWI5]”, the median enrichment worked out at 1.02. As to “SAHAARRQGGLRRGPHSTRVCFCAAVQTVATALTERDSRAFILKEMFFPRGLLKE [GATA6]”, the median enrichment amounted to 4.62. Turning to “SAHQRAPSPRIAAPTQPGAPDPPGGLRGNRRREGKGPPSPSRPQGAATDWRAAEGGRARAPRGRTIRAPAPRPVPPQARA [TLX3]”, the median enrichment was found to be 3.75. The figure for SAHSPLSQDMDLELRMGLS [IMP4] is 0.513. With SAIHL [XKR9], the median enrichment worked out at 0.425.

As to SALELLNLCPWGFHPNQCQGPPLPPSK [ACY1], the median enrichment stood at 2. The figure for “SALGWSQGGTTQAPWAPRERGGIRAGQPPGCRCQEQSQAQVAPAACPVPFPKAPLHIEGRKREFRQLHSPFTPNPVFYSPEKR [STARD8]” is 3.27. As for “SALTHAHAPLTLKRIHNSLEKHPHVCCRTHSSQLRPIPVTTASPPTPVTTASPPTPVTTASPPTALSPRPMSACPRAQDFLTG [SSH3]”, the figure is 2.09. As for “SAMVSRAPHTRVYTRTMWYVARPGPGVRLGQPQLSLPLLLIQGVTRHLSLCYFWPQQEPVLGYFCPCSSQPNSGLAHPSPPPK [KCNJ11]”, the figure is 5.63. For the substance SAPCSTPSPPHPPWAGS [MOSPD3], the median enrichment was 4.09. Take “SAPDSASALLTFYPVSLPSPLKAGAPRELPWSSLPGRV [PKMYT1]”: the median enrichment was 8.2. As for SAPPAACPACPACLSRHTGFRTC [DIS3L2], the figure is 16.6; as for “SAPPGTPSTPSIFSTKALVVSTLLPNGHTPKWPVGRESWSTCSGMVWWKRG [CLIC1]”, 11; as for “SAPYWPAGPPPPAAGQLPNGPFQGLTLHPFSVDFLARAPSGGITDLMTTLALLPCRVQVLSPHFHLPAPRGPFPFMGLPPSDA [PCDH1]”, 3.42. The figure for “SAQQSHHPASQAGGRSWGRGLSPVRLLLVKGQGPGQASSSVQVILASVVGGRESKTCSAVSSSGD [PIK3C2B]” is 2.95. As for “SARSAVSSQWILVNWWRLADTLEKPKPESLLFSLFSCLCSVSLNTTFSAMVCG [MRFAP1]”, the figure is 5.22. With SASAEVTEKPYDDVPDFSVGRSRPVA [TCF25], the median enrichment was 0.734. As for SATCPKA [NOL4L], the figure is 0.348. As for SAVKFF [INTS8], the figure is 0.917; as for “SCIAGLSSAASTECQAPHSAHPWALLRGPKTQEEERSACPLPPPLQYSLCAVV [SYCN]”, 10.8. For the substance SCLY [GLRX2], the median enrichment worked out at 1.01. Turning to SCNPTRAHFIIAETSVCIPVITHCNRATN [IDO1], the median enrichment is 4.95. As to SCPPRCSQGNLAPRS [ZIC4], the median enrichment was 0.982.

As to SCPSFGNILF [RNASET2], the median enrichment was 0.362. As for SCRDSPAPKYK [MT1G], the figure is 0.15. Turning to SCRVFSSFFLLQEFVVT [MMP16], the median enrichment came out at 3.12.

“SCSNGKMALFKPGPPIGQTQQQTRGQGSPVALSIEDRFLGSRRGWRKLKAGE [BTN3A2]”: the median enrichment came out at 5.24. The figure for “SCVGHPTRHPSSLRRPVGRQGSRGFALLLSSRVMTLLSISSHYSPCLALRAALLSSQAAPVPSPSTLEWSSSACFPSHRPATT [RAB15]” is 5.5; for SCVKSFSVFSTFIKTQDNSYWREILQM [ZNF708] it is 11.8. The figure for “SDARQFLDLGGLKRPPSCLLSFSVSSFLLVFFILFSFHQPSCILALQRDRDRSSAQGFSLPLFIMGGGYHPPSQSCEESGTSF [NOTCH3]” is 5.68. As for SDASTGPSLFCPQP [HSPB8], the figure is 0.471; as for “SDDILSPCVAFYLRFPRPAMFSSSPFSLYKNSFSRKTLISIVYMSLWLRH [ACTR3C]”, 17.1. Regarding SDEHG [TMEM242], the median enrichment turned out to be 1.05. As to SDFDHLNFL [IL1RL1], the median enrichment was found to be 0.533. Turning to “SDFYLNRETYARTVWTNSRPRHGARRPAGLPPLDGRGKDGRELHCESAARAAGGWDWSSLYCR [DOT1L]”, the median enrichment amounted to 6.88. The figure for “SDGSAGTHCPPWLPLGGNPNRAPGGNPAPNPPQQGCTVSPLED [ATP13A1]” is 0.555; for “SDLVQHGNDSYRLIQQLTLRQVVLFQRPLFLPKPCYELNQMCQVFSGVLSNILFSCMGTSPLQMTMLMDLFIYLFKSLFS [IFNA8]” it is 8.28; for SDNL [PDLIM2] it is 0.365.

In the case of SDP [CYGB], the median enrichment came to 0.606.

Turning to SDPAGSINLDAWTL [MYL5], the median enrichment came out at 0.467. For “SDPTSPSAFHWLCHGLYKQIIFPLFKIKSPNENLGM [PRSS37]”, the median enrichment stood at 5.12. The figure for “SDQAVLEDRQIYTPHTHTTYTTHTRSHPLTHTLHRLLPYSWTFI [BMP4]” is 9.46. The figure for SDQGLGLRVGGLVEHCNPLNK [LRG1] is 1.34; for SDQLVCL [PPP1R15A] it is 0.401; for “SDRTCLRGRRTLAWAQESEAAFLLRGPSGESGPRYHARTLRGPVSCRRVSTFPPNPGLTALRSARRARAETRVGCGELKEPIK [UQCC3]” it is 3.65.

Take SDS [POLE2]: the median enrichment turned out to be 0.445. In the case of SDSESN [MCM6], the median enrichment was determined as 0.12. As to SDTLLWSETEDVG [PEX7], the median enrichment was 2.59. The figure for SDVQDL [ZMPSTE24] is 0.181; for “SDYCKPLPLLPCLCLFSPLTYSISQPPPTCLCDLRTVPSRHWDKGRISCSPPESAWCCPLFPLCAYD [PRPF3]” it is 2.87. As to SEAPAANTMQARCVSELF [METTL2B], the median enrichment was 0.81.

On to SECTLQSWWFLRVGLDRVAAC [BPHL], for which the median enrichment came to 7.67.

In the case of SEELPGRTQDAEPRSLPG [ACAN], the median enrichment turned out to be 0.794. Turning to “SEEPQDHTHSPYPPQDYRTFWHTLYRVLGFTPQNDPTMSTHHQNPANGPPLPPSPDAEMVMGSWRVGSEMKGTPQWAAGPIFP [SLC13A5]”, the median enrichment was 3.6.

With SEEQPSFVPVVFIKYPLHP [WDR54], the median enrichment is 6.65. For “SEERMYVCFTHRHQESSPMRFFFGGGRVYTAREQKYCVS [B4GALT5]”, the median enrichment turned out to be 9.99. SEITDTFFGIHILGLGGVAHACNPSPLGG [CTSL]: the median enrichment came out at 13.3. The figure for “SEMMSCPGPMATRTLQATLLCDQARIPGAGLRGLNGPSGTQVGLSTLSPTTQPTALK [TMEM54]” is 0.763.
